± gives the uncertainty stated by the source.
B1: Max-interacting protein 1, residues 70 to 120; numbered along this chain, P50539 (parent)
chain: STHNELEKNRRAHLRLCLERLKVLIPLGPDCTRHTTLGLLNKAKAHIKKLE

Variants of: B1
Experiment: abundance fitness (aPCA) (normalised: wild type 0, dead -1); higher = more abundant; growth selection in yeast, the domain comes from the species named
Details: Homo sapiens

Abundance fitness: each site, then its substitutions
A45: K -0.057 ± 0.13 | V -0.045 ± 0.09 | G -0.447 ± 0.085
H46: D -0.973 ± 0.18 | N -0.394 ± 0.23 | K 0.186 ± 0.13
E19: R -0.513 ± 0.096 | D -0.252 ± 0.2 | Y -0.79 ± 0.21 | K -0.467 ± 0.2
T36: S -0.132 ± 0.094 | G 0.134 ± 0.076 | L -0.106 ± 0.1 | E -0.487 ± 0.13 | N -0.183 ± 0.16 | A 0.138 ± 0.097 | H -0.176 ± 0.15 | C 0.085 ± 0.13 | P -0.107 ± 0.12
L40: P -0.89 ± 0.21 | E -0.857 ± 0.13 | K -0.793 ± 0.24 | A -0.553 ± 0.11 | F 0.033 ± 0.11 | S -0.91 ± 0.12 | Q -0.933 ± 0.19 | N -0.584 ± 0.3
G38: F -0.584 ± 0.12 | K 0.081 ± 0.14 | C -0.229 ± 0.13 | A -0.055 ± 0.085 | S -0.087 ± 0.089 | I -0.486 ± 0.22 | R -0.009 ± 0.078 | H -0.168 ± 0.18
D30: M 0.118 ± 0.098 | T 0.128 ± 0.077 | G 0.178 ± 0.087 | F 0.036 ± 0.077 | L 0.183 ± 0.071 | C -0.07 ± 0.084 | A 0.095 ± 0.077 | P 0.128 ± 0.076 | E -0.134 ± 0.12
P26: K 0.441 ± 0.12 | S 0.193 ± 0.1 | T 0.369 ± 0.12 | G 0.278 ± 0.087 | Q 0.144 ± 0.12 | D -0.327 ± 0.14 | Y -0.626 ± 0.23 | C -0.157 ± 0.13
L16: I -0.133 ± 0.19 | Q 0.16 ± 0.14 | P -0.126 ± 0.14 | N -0.069 ± 0.17 | C -0.247 ± 0.14 | E 0.102 ± 0.12 | V -0.058 ± 0.1
T32: A 0.163 ± 0.086 | L 0.374 ± 0.089 | V 0.341 ± 0.079 | G 0.012 ± 0.074
I25: H -0.744 ± 0.23 | D -0.852 ± 0.17 | P -0.334 ± 0.13 | A -0.584 ± 0.11 | C 0.045 ± 0.14 | R -0.521 ± 0.098 | M -0.228 ± 0.13
H13: I -0.447 ± 0.22 | T -0.353 ± 0.15 | G 0.124 ± 0.08 | Q -0.086 ± 0.12 | P 0.064 ± 0.15
L27: E -0.423 ± 0.1 | R 0.308 ± 0.084 | V -0.009 ± 0.087 | I -0.004 ± 0.13 | H -0.146 ± 0.22 | C -0.573 ± 0.17 | T 0.074 ± 0.11 | S 0.166 ± 0.1 | P 0.359 ± 0.11
K42: A -0.319 ± 0.095 | T -0.196 ± 0.12 | I -0.284 ± 0.16 | L -0.641 ± 0.1 | Y -0.684 ± 0.15 | M -0.452 ± 0.16 | W -0.23 ± 0.087 | G -0.421 ± 0.08 | R -0.069 ± 0.076 | Q -0.44 ± 0.13 | P -0.808 ± 0.16
N4: M -0.289 ± 0.12 | L -0.48 ± 0.092 | Q 0.041 ± 0.15 | V -0.404 ± 0.1 | H -0.381 ± 0.23 | D -0.134 ± 0.15 | F -0.713 ± 0.2 | P -0.276 ± 0.13
N41: D -0.322 ± 0.17 | M -0.559 ± 0.27 | R -0.044 ± 0.1 | T -0.555 ± 0.2 | E -0.139 ± 0.27 | P -0.44 ± 0.18 | Y -0.745 ± 0.34 | W -0.83 ± 0.2 | F -0.7 ± 0.3
T2: V -0.663 ± 0.088 | R -0.631 ± 0.1 | P -0.35 ± 0.078 | A -0.303 ± 0.086 | F -0.586 ± 0.097
L39: P -0.597 ± 0.15 | M -0.194 ± 0.11 | K -0.881 ± 0.16 | R -0.879 ± 0.1 | I -0.07 ± 0.13 | S -0.707 ± 0.11 | T -0.535 ± 0.16 | D -1.11 ± 0.23 | Q -0.894 ± 0.18 | A -0.704 ± 0.15
G28: L -0.142 ± 0.096 | Q -0.092 ± 0.11 | E -0.38 ± 0.11 | P -0.015 ± 0.13 | K 0.362 ± 0.11
E5: G -0.244 ± 0.1 | T -0.006 ± 0.13 | P -0.15 ± 0.11 | S -0.205 ± 0.11 | D -0.021 ± 0.15 | C -0.991 ± 0.32
K8: N -0.328 ± 0.18 | C -0.278 ± 0.15 | A -0.386 ± 0.089 | P -0.451 ± 0.14 | D -0.568 ± 0.13 | Y -0.619 ± 0.18 | V -0.338 ± 0.095 | F -0.236 ± 0.13 | R -0.353 ± 0.089 | L -0.232 ± 0.11
R10: T 0.309 ± 0.14 | V -0.101 ± 0.082 | G -0.322 ± 0.083 | C -0.071 ± 0.14 | H -0.068 ± 0.14 | S -0.217 ± 0.1 | P 0.298 ± 0.14 | W 0.163 ± 0.11 | N -0.18 ± 0.24
P29: V 0.401 ± 0.095 | D -0.387 ± 0.17 | E -0.296 ± 0.13 | T 0.177 ± 0.12 | N -0.106 ± 0.2 | K 0.44 ± 0.12 | W 0.519 ± 0.11
H3: F 0.168 ± 0.2 | N -0.162 ± 0.17 | Q -0.023 ± 0.13 | W -0.549 ± 0.14 | P 0.018 ± 0.12
C31: I 0.167 ± 0.13 | Y -0.13 ± 0.12 | W 0.19 ± 0.091 | N 0.185 ± 0.14 | Q 0.072 ± 0.12
T35: A 0.213 ± 0.082 | Q -0.176 ± 0.12 | R 0.225 ± 0.075 | C 0.019 ± 0.098 | S 0.025 ± 0.089
S1: L -0.59 ± 0.15 | N -0.158 ± 0.3 | W -0.916 ± 0.18 | A -0.6 ± 0.17 | Y -0.444 ± 0.31
K48: T -0.719 ± 0.15 | P -0.643 ± 0.14 | H -0.74 ± 0.21 | Q -0.457 ± 0.22 | D -0.65 ± 0.15 | I -0.351 ± 0.23 | N -0.675 ± 0.4 | V -0.846 ± 0.096
E51: Y 0.374 ± 0.21 | Q -0.198 ± 0.25 | C 0.207 ± 0.21 | T 0.462 ± 0.16 | W -0.059 ± 0.18 | N 0.504 ± 0.18 | K 0.891 ± 0.5
L14: S -0.299 ± 0.089 | E -0.645 ± 0.16 | T -0.368 ± 0.14 | R -0.447 ± 0.086 | Y 0.111 ± 0.15 | F 0.096 ± 0.15
C17: A -0.193 ± 0.11 | H -0.683 ± 0.25 | E -0.681 ± 0.17 | I -0.617 ± 0.23 | V 0.061 ± 0.092 | N -0.536 ± 0.28 | G -0.402 ± 0.1 | T -0.666 ± 0.13
R33: Q -0.116 ± 0.12 | V -0.293 ± 0.079 | M -0.394 ± 0.11 | I -0.691 ± 0.15 | T -0.576 ± 0.12
H34: V 0.019 ± 0.094 | K 0.39 ± 0.12 | R 0.264 ± 0.074 | N 0.052 ± 0.15 | T -0.103 ± 0.11 | Q -0.028 ± 0.11 | I -0.225 ± 0.14
K22: T -0.835 ± 0.14 | I -1.21 ± 0.22 | W -1.08 ± 0.15 | G -0.611 ± 0.11 | D -0.83 ± 0.31
V23: E 0.096 ± 0.17 | Y -0.062 ± 0.14 | I -0.218 ± 0.12 | K 0.547 ± 0.13 | C 0.287 ± 0.1 | L 0.128 ± 0.092
L21: H -0.335 ± 0.47 | P -0.978 ± 0.22 | M -0.358 ± 0.15 | I -0.144 ± 0.17 | D -1.23 ± 0.28 | F -0.398 ± 0.16 | Q -0.495 ± 0.26
R11: Q -0.281 ± 0.12 | V -0.509 ± 0.087 | I -0.252 ± 0.26 | D -0.19 ± 0.14 | A -0.547 ± 0.1 | M -0.261 ± 0.13
R15: K 0.143 ± 0.12 | H -0.462 ± 0.23 | Y -0.941 ± 0.19 | Q -0.369 ± 0.13 | F -0.269 ± 0.12 | A -0.211 ± 0.11 | V -0.678 ± 0.11 | E -0.476 ± 0.12
L6: K -0.086 ± 0.13 | F -0.228 ± 0.17 | G 0.203 ± 0.085 | C -0.123 ± 0.13 | N -0.329 ± 0.31 | E -0.574 ± 0.14 | H 0.519 ± 0.2
A43: Y -0.918 ± 0.26 | Q -0.74 ± 0.2 | K -0.939 ± 0.22 | C -0.133 ± 0.1 | W -0.303 ± 0.11 | T -0.339 ± 0.11 | N -0.553 ± 0.17 | E -0.58 ± 0.13 | S -0.652 ± 0.11
L50: Q -0.377 ± 0.13 | R -0.459 ± 0.1 | Y -0.351 ± 0.31 | F 0.259 ± 0.19 | V -0.616 ± 0.1 | E -0.636 ± 0.12 | A -0.572 ± 0.11
A12: Y -0.932 ± 0.23 | E -0.432 ± 0.11 | P -0.102 ± 0.12 | N -0.185 ± 0.15 | D -0.438 ± 0.17 | F -0.826 ± 0.19 | T 0.124 ± 0.12 | S 0.018 ± 0.094 | I -0.847 ± 0.2 | L -0.651 ± 0.1 | Q -0.305 ± 0.12 | G -0.063 ± 0.08 | W -0.193 ± 0.1
K49: L -0.386 ± 0.094 | F -0.045 ± 0.19 | Q -0.679 ± 0.17 | G -0.458 ± 0.091
L24: D -1 ± 0.17 | H -0.139 ± 0.15 | M -0.292 ± 0.16 | V -0.193 ± 0.087 | S -0.391 ± 0.11
R20: P -0.753 ± 0.17 | N -0.335 ± 0.28 | S -0.576 ± 0.1 | A -0.677 ± 0.11 | E -0.929 ± 0.16 | W -0.912 ± 0.15 | D -1.17 ± 0.28
I47: E -0.776 ± 0.16 | L 0.027 ± 0.09 | F 0.216 ± 0.21 | R -0.707 ± 0.087 | Y -0.137 ± 0.17 | D -0.761 ± 0.15 | G -0.539 ± 0.09
L18: R -0.652 ± 0.09 | M -0.405 ± 0.12 | D -0.625 ± 0.2 | Q -1.08 ± 0.18
L37: G -0.107 ± 0.089 | M -0.124 ± 0.14 | S 0.06 ± 0.11 | E -0.344 ± 0.11 | W 0.125 ± 0.12 | N -0.292 ± 0.21
E7: A -0.263 ± 0.09 | Q -0.169 ± 0.13 | L -0.109 ± 0.091 | K 0.061 ± 0.13 | H -0.3 ± 0.16 | T -0.468 ± 0.14 | I -0.479 ± 0.14 | C -0.267 ± 0.11

Source: the Human Domainome abundance scans (Beltran et al. 2025)
